Data on two proteins can be found in paper PMC5142293, “Characterization of spermidine hydroxycinnamoyl transferases from eggplant (Solanum melongena L.) and its wild relative Solanum richardii Dunal” (Horticulture Research, 2016).

What all share (assay): spectrophotometric acylation assay, microplate (absorbance loss of CoA ester)
Common to all, as to settings: 2.5 mM polyamine acceptor (text b49: spermidine; table title and b21: spermine), pH 9.0, 30 °C, Tris-HCl, 10 mM EDTA

Substrate in data set [1]: COc1cc(/C=C/C(=O)SCCNC(=O)CCNC(=O)[C@H](O)C(C)(C)COP(=O)(O)OP(=O)(O)OC[C@H]2O[C@@H](n3cnc4c(N)ncnc43)[C@H](O)[C@@H]2OP(=O)(O)O)ccc1O
Type of data set: biochemical, Solanum virginianum. From the text: (§1) spectrophotometric acylation assay, microplate (absorbance loss of CoA ester) on SmSHT

Substrate in data set [2]: CC(C)(COP(=O)(O)OP(=O)(O)OC[C@H]1O[C@@H](n2cnc3c(N)ncnc32)[C@H](O)[C@@H]1OP(=O)(O)O)[C@@H](O)C(=O)NCCC(=O)NCCSC(=O)/C=C/c1ccc(O)cc1
Type of data set: biochemical, Solanum virginianum.
Excerpt: as §1

Substrate in data set [3]: CC(C)(COP(=O)(O)OP(=O)(O)OC[C@H]1O[C@@H](n2cnc3c(N)ncnc32)[C@H](O)[C@@H]1OP(=O)(O)O)[C@@H](O)C(=O)NCCC(=O)NCCSC(=O)/C=C/c1ccc(O)c(O)c1
Type of data set: biochemical, Solanum virginianum.
Excerpt: as §1

Substrate in data set [4]: COc1cc(/C=C/C(=O)SCCNC(=O)CCNC(=O)[C@H](O)C(C)(C)COP(=O)(O)OP(=O)(O)OC[C@H]2O[C@@H](n3cnc4c(N)ncnc43)[C@H](O)[C@@H]2OP(=O)(O)O)ccc1O
Type of data set: biochemical, Solanum richardii. From the text: (§2) spectrophotometric acylation assay, microplate (absorbance loss of CoA ester) on SrSHT

Substrate in data set [5]: CC(C)(COP(=O)(O)OP(=O)(O)OC[C@H]1O[C@@H](n2cnc3c(N)ncnc32)[C@H](O)[C@@H]1OP(=O)(O)O)[C@@H](O)C(=O)NCCC(=O)NCCSC(=O)/C=C/c1ccc(O)cc1
Type of data set: biochemical, Solanum richardii.
Excerpt: as §2

Substrate in data set [6]: CC(C)(COP(=O)(O)OP(=O)(O)OC[C@H]1O[C@@H](n2cnc3c(N)ncnc32)[C@H](O)[C@@H]1OP(=O)(O)O)[C@@H](O)C(=O)NCCC(=O)NCCSC(=O)/C=C/c1ccc(O)c(O)c1
Type of data set: biochemical, Solanum richardii.
Excerpt: as §2

B1: SmSHT (Solanum virginianum) (protein)
chain: MKVILKNHWVVKPAAPTWTGTVSLSEFDQTFAVTHVPTIYYYKFVQDFITSTDEIIKTLKTSLSEALVHFYPLAGRLRWISGSRLELECDASGVVLTEAETDAKLDDLDSFLLSPNYNSLFPRVDYTIPIDELPLLFVQLTKFQCGGIALSFAISHAVVDGHSALYFFSEWARLSRGEPLMFAPFHDRKVLRAGEPAIACPTFEHLQFNTPPLLIGKSSTENEKKKETKGSMLKLTKLQVEMLREKANQGRNLEDSRERSYTRYEVVTAHIWRCACKARGHKFEQPTNLCICVDIRRRMDPPLPSSYFGNAIVDVIATGASGDIVLSPLECAAKRVREAIKMVTSDYANSTINFLKKEEDLSKYQDIHAFRNKEGPFYGNPNLGVISWISLPVLGLDFGWGKEFHMSPGIHEYDGDCVILPDNEGDGSLTVAIVLQEAHVDAFKKFFYEDIEC
notes: full-length ORF, 453 residues, pET-32a(+) N-terminal His-tag (73 kDa with tag, 51 kDa predicted), E. coli, Ni-NTA purified
A word on the Km: it is the substrate concentration at which the rate is half of its maximum. The term kcat denotes the maximal rate divided by the concentration of active sites. As a reminder, the kcat/Km is the second-order rate constant that governs catalysis at low substrate concentration. Consider B1, for which, in data set [1], the Km was found to be 27.3 ± 5.6 µM, the kcat came to 3.87 ± 0.205 s⁻¹ and the kcat/Km was determined as 142000 ± 8330 M⁻¹ s⁻¹. Moreover, in data set [2], the Km amounted to 29.6 ± 5.8 µM, the kcat is 3.02 ± 0.122 s⁻¹ and the kcat/Km amounted to 102000 ± 3330 M⁻¹ s⁻¹. In data set [3], the Km was found to be 58.3 ± 1.7 µM, the turnover number (kcat) amounted to 7.36 ± 0.185 s⁻¹ and the specificity constant (kcat/Km) was 127000 ± 3330 M⁻¹ s⁻¹.

B2: SrSHT (Solanum richardii) (protein)
chain: MKVILKNHWVVKPAAPTWTGTVSLSEFDQTFAVTHVPTIYYYKFVQDFITSTDEIIKTLKTSLSEALVHFYPLAGRLRWISGSRLELECDASGVVLTEAETDAKLDDLDSFLLSPNYNSLFPRVDYTIPIDELPLLFVQLTKFQCGGIALSFAISHAVVDGHSALYFFSEWARLSRGEPLMFAPFHDRKVLRAGEPAIASPTFEHLQFNTPPLLIGKSSTENEKKKETKGSMLKLTKLQVEMLREKANQGRNLEDSRERSYTRYEVVTAHIWRCACKARGHKFEQSTNLCICVDIRKRMDPPLPSSYFGNAIVDVIATGASGDIVSSPLECAAKRVREAIKMVTSDYANSTINFLKKEEDLSKYQDIHAFRNKEGPFYGNPNLGVISWISLPVLGLDFGWGEEFHMSPGIHEYDGDCVILPDNEGDGSLTVAIVLQEAHVDAFKKFFYEDIEC
notes: full-length ORF, 453 residues, pET-32a(+) N-terminal His-tag (73 kDa with tag, 51 kDa predicted), E. coli, Ni-NTA purified; natural ortholog differing from SmSHT by C200S, P286S, R297K, L326S, K402E
With B2, the Km was determined as 51.3 ± 10.6 µM in data set [4], 38.4 ± 3.3 µM in data set [5] and 67.1 ± 7.6 µM in data set [6]. Besides, the kcat was found to be 6.88 ± 1 s⁻¹ in data set [4], 4.33 ± 0.243 s⁻¹ in data set [5] and 10.1 ± 0.483 s⁻¹ in data set [6]. The kcat/Km in data set [4] was 133000 ± 20000 M⁻¹ s⁻¹; in data set [5] it was 113000 ± 6670 M⁻¹ s⁻¹; in data set [6], 150000 ± 6670 M⁻¹ s⁻¹.
